Measured values published in the supplement of paper PMC5998384.

Assays:
HeLa Kyoto [1] = assay: solubility in G1/S (NP-40 vs SDS abundance) (log2 ratio); higher = more soluble; conditions: cell cycle stage: G1/S
HeLa Kyoto [2] = assay: melting temperature (median over replicates), in situ; higher = more thermally stable
HeLa Kyoto [3] = assay: solubility change mitosis vs G1/S (difference of NP-40 vs SDS log2 ratios) (log2 ratio difference); higher = more soluble in mitosis
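For melting temperature (median over replicates), in situ in this document: HeLa Kyoto cells synchronized by double thymidine or nocodazole block, proteins quantified by TMT10plex mass spectrometry, three independent biological replicates.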
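For solubility change mitosis vs G1/S (difference of NP-40 vs SDS log2 ratios) in this document: synchronized HeLa Kyoto cells (double thymidine block for G1/S, nocodazole release for mitosis), protein amounts in NP-40 versus SDS lysates quantified by mass spectrometry, three biological replicates.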
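For solubility in G1/S (NP-40 vs SDS abundance) in this document: HeLa Kyoto cells arrested at G1/S by double thymidine block, proteins quantified by TMT10plex mass spectrometry in mild NP-40 versus SDS extracts, three biological replicates.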

Sequence	solubility in G1/S (log2) (HeLa Kyoto [1])	melting temperature (HeLa Kyoto [2]; cell cycle stage: G1/S) [°C]	melting temperature (HeLa Kyoto [2]; cell cycle stage: mitosis) [°C]	solubility change mitosis (log2) (HeLa Kyoto [3])
MRDNTSPISVILVSSGSRGNKLLFRYPFQRSQEHPASQTSKPRSRYAASNTGDHADEQDGDSRFSDVILATILATKSEMCGQKFELKIDNVRFVGHPTLLQHALGQISKTDPSPKREAPTMILFNVVFALRANADPSVINCLHNLSRRIATVLQHEERRCQYLTREAKLILALQDEVSAMADGNEGPQSPFHHILPKCKLARDLKEAYDSLCTSGVVRLHINSWLEVSFCLPHKIHYAASSLIPPEAIERSLKAIRPYHALLLLSDEKSLLGELPIDCSPALVRVIKTTSAVKNLQQLAQDADLALLQVFQLAAHLVYWGKAIIIYPLCENNVYMLSPNASVCLYSPLAEQFSHQFPSHDLPSVLAKFSLPVSLSEFRNPLAPAVQETQLIQMVVWMLQRRLLIQLHTYVCLMASPSEEEPRPREDDVPFTARVGGRSLSTPNALSFGSPTSSDDMTLTSPSMDNSSAELLPSGDSPLNQRMTENLLASLSEHERAAILSVPAAQNPEDLRMFARLLHYFRGRHHLEEIMYNENTRRSQLLMLFDKFRSVLVVTTHEDPVIAVFQALLP [NPRL3]	-0.108	50.8	52.5	0.129
MRGAGPSPRQSPRTLRPDPGPAMSFFRRKVKGKEQEKTSDVKSIKASISVHSPQKSTKNHALLEAAGPSHVAINAISANMDSFSSSRTATLKKQPSHMEAAHFGDLGRSCLDYQTQETKSSLSKTLEQVLHDTIVLPYFIQFMELRRMEHLVKFWLEAESFHSTTWSRIRAHSLNTVKQSSLAEPVSPSKKHETTASFLTDSLDKRLEDSGSAQLFMTHSEGIDLNNRTNSTQNHLLLSQECDSAHSLRLEMARAGTHQVSMETQESSSTLTVASRNSPASPLKELSGKLMKSIEQDAVNTFTKYISPDAAKPIPITEAMRNDIIARICGEDGQVDPNCFVLAQSIVFSAMEQEHFSEFLRSHHFCKYQIEVLTSGTVYLADILFCESALFYFSEYMEKEDAVNILQFWLAADNFQSQLAAKKGQYDGQEAQNDAMILYDKYFSLQATHPLGFDDVVRLEIESNICREGGPLPNCFTTPLRQAWTTMEKVFLPGFLSSNLYYKYLNDLIHSVRGDEFLGGNVSLTAPGSVGPPDESHPGSSDSSASQSSVKKASIKILKNFDEAIIVDAASLDPESLYQRTYAGKMTFGRVSDLGQFIRESEPEPDVRKSKGSMFSQAMKKWVQGNTDEAQEELAWKIAKMIVSDIMQQAQYDQPLEKSTKL [AKAP10]	0.00407	–	49.8	-0.166
MRLAGPLRIVVLVVSVGVTWIVVSILLGGPGSGFPRIQQLFTSPESSVTAAPRARKYKCGLPQPCPEEHLAFRVVSGAANVIGPKICLEDKMLMSSVKDNVGRGLNIALVNGVSGELIEARAFDMWAGDVNDLLKFIRPLHEGTLVFVASYDDPATKMNEETRKLFSELGSRNAKELAFRDSWVFVGAKGVQNKSPFEQHVKNSKHSNKYEGWPEALEMEGCIPRRSTAS [FAM3A]	-0.0403	51.9	52.8	-0.0146
MRMSDTVTVKDETATMKDLEAEVKDTTRVENLIKSENYGKILVEKNEHCIENNIDLQRPLQSFGQTGKRSKSSSKLKLVRSLAVCEESPPPPAPEISQENQEKIQIQLTQSFEKEEKPSKDEAEKEKASDKLPRKMLSRDSSQEYTDSTGIDLHEFLVNTLKNNPRDRMMLLKLEQEILDFIGNNESPRKKFPPMTSYHRMLLHRVAAYFGLDHNVDQSGKSVIVNKTSNTRIPDQKFNEHIKDDKGEDFQKRYILKRDNSSFDKDDNQMRIRLKDDRRSKSIEEREEEYQRARDRIFSQDSLCSQENYIIDKRLQDEDASSTQQRRQIFRVNKDASGRSTNSHQSSTENELKYSEPRPWSSTDSDSSLRNLKPAVTKASSFSGISVLTRGDSSGSSKSIGRLSKTGSESSGSVGSSTGSLSHIQQPLPGTALSQSSHGAPVVYPTVSTHSSLSFDGGLNGQVASPSTSFFLLPLEAAGIPPGSILINPQTGQPFINPDGSPVVYNPPMTQQPVRSQVPGPPQPPLPAPPQQPAANHIFSQDNLGSQFSHMSLARQPSADGSDPHAAMFQSTVVLQSPQQSGYIMTAAPPPHPPPPPPPPPPPPPLPPGQPVPTAGYPASGHPVSQPVLQQQGYIQQPSPQMPACYCAPGHYHSSQPQYRPVPSVHYNSHLNQPLPQPAQQTGYQVIPNQQQNYQGIVGVQQPQSQSLVSGQPNSIGNQIQGVVIPYTSVPTYQVSLPQGSQGIPHQTYQQPVMFPNQSNQGSMPTTGMPVYYSVIPPGQQNNLSSSVGYLQHPGSEQVQFPRTTSPCSSQQLQGHQCTAGPPPPPGGGMVMMQLSVPNNPQSCAHSPPQWKQNKYYCDHQRGQKCVEFSSVDNIVQHSPQLSSPIISPAQSPAPAQLSTLKTVRPSGPPLSIMPQFSRPFVPGQGDSRYPLLGQPLQYNPPAVLHGHIPNQQGQPGSRHGNRGRRQAKKAASTDLGAGETVVGKVLEITELPDGITRMEAEKLFGELFKIGAKIRWLRDPQSQPRRHPLCCGSGDNTANPERSKPSDLASTYTVLATFPSISAAQNALKKQINSVNKFKLRTSKKHYDFHILERASSQ [R3HDM1]	0.189	52.3	50.9	-0.239
MRRSAAPSQLQGNSFKKPKFIPPGRSNPGLNEEITKLNPDIKLFEGVAINNTFLPSQNDLRICSLNLPSEESTREINNRDNCSGKYCFEAPTLATLDPPHTVHSAPKEVAVSKEQEEKSDSLVKYFSVVWCKPSKKKHKKWEGDAVLIVKGKSFILKNLEGKDIGRGIGYKFKELEKIEEGQTLMICGKEIEVMGVISPDDFSSGRCFQLGGGSTAISHSSQVARKCFSNPFKSVCKPSSKENRQNDFQNCKPRHDPYTPNSLVMPRPDKNHQWVFNKNCFPLVDVVIDPYLVYHLRPHQKEGIIFLYECVMGMRMNGRCGAILADEMGLGKTLQCISLIWTLQCQGPYGGKPVIKKTLIVTPGSLVNNWKKEFQKWLGSERIKIFTVDQDHKVEEFIKSIFYSVLIISYEMLLRSLDQIKNIKFDLLICDEGHRLKNSAIKTTTALISLSCEKRIILTGTPIQNDLQEFFALIDFVNPGILGSLSSYRKIYEEPIILSREPSASEEEKELGERRAAELTCLTGLFILRRTQEIINKYLPPKIENVVFCRPGALQIELYRKLLNSQVVRFCLQGLLENSPHLICIGALKKLCNHPCLLFNSIKEKECSSTCDKNEEKSLYKGLLSVFPADYNPLLFTEKESGKLQVLSKLLAVIHELRPTEKVVLVSNYTQTLNILQEVCKRHGYAYTRLDGQTPISQRQQIVDGFNSQHSSFFIFLLSSKAGGVGLNLIGGSHLILYDIDWNPATDIQAMSRVWRDGQKYPVHIYRLLTTGTIEEKIYQRQISKQGLCGAVVDLTKTSEHIQFSVEELKNLFTLHESSDCVTHDLLDCECTGEEVHTGDSLEKFIVSRDCQLGPHHQKSNSLKPLSMSQLKQWKHFSGDHLNLTDPFLERITENVSFIFQNITTQATGT [RAD54B]	-0.106	46.5	48.1	-0.0255
MSAKPEVSLVREASRQIVAGGSAGLVEICLMHPLDVVKTRFQIQRCATDPNSYKSLVDSFRMIFQMEGLFGFYKGILPPILAETPKRAVKFFTFEQYKKLLGYVSLSPALTFAIAGLGSGLTEAIVVNPFEVVKVGLQANRNTFAEQPSTVGYARQIIKKEGWGLQGLNKGLTATLGRHGVFNMVYFGFYYNVKNMIPVNKDPILEFWRKFGIGLLSGTIASVINIPFDVAKSRIQGPQPVPGEIKYRTCFKTMATVYQEEGILALYKGLLPKIMRLGPGGAVMLLVYEYTYSWLQENW [SLC25A21]	-0.251	56.9	55.7	-0.00648
MSATSVDTQRTKGQDNKVQNGSLHQKDTVHDNDFEPYLTGQSNQSNSYPSMSDPYLSSYYPPSIGFPYSLNEAPWSTAGDPPIPYLTTYGQLSNGDHHFMHDAVFGQPGGLGNNIYQHRFNFFPENPAFSAWGTSGSQGQQTQSSAYGSSYTYPPSSLGGTVVDGQPGFHSDTLSKAPGMNSLEQGMVGLKIGDVSSSAVKTVGSVVSSVALTGVLSGNGGTNVNMPVSKPTSWAAIASKPAKPQPKMKTKSGPVMGGGLPPPPIKHNMDIGTWDNKGPVPKAPVPQQAPSPQAAPQPQQVAQPLPAQPPALAQPQYQSPQQPPQTRWVAPRNRNAAFGQSGGAGSDSNSPGNVQPNSAPSVESHPVLEKLKAAHSYNPKEFEWNLKSGRVFIIKSYSEDDIHRSIKYSIWCSTEHGNKRLDSAFRCMSSKGPVYLLFSVNGSGHFCGVAEMKSPVDYGTSAGVWSQDKWKGKFDVQWIFVKDVPNNQLRHIRLENNDNKPVTNSRDTQEVPLEKAKQVLKIISSYKHTTSIFDDFAHYEKRQEEEEVVRKERQSRNKQ [YTHDF1]	0.14	–	47.8	-0.0272
MSEAYFRVESGALGPEENFLSLDDILMSHEKLPVRTETAMPRLGAFFLERSAGAETDNAVPQGSKLELPLWLAKGLFDNKRRILSVELPKIYQEGWRTVFSADPNVVDLHKMGPHFYGFGSQLLHFDSPENADISQSLLQTFIGRFRRIMDSSQNAYNEDTSALVARLDEMERGLFQTGQKGLNDFQCWEKGQASQITASNLVQNYKKRKFTDMED [GINS3]	0.471	51.7	51.7	0.225
MSEEEQGSGTTTGCGLPSIEQMLAANPGKTPISLLQEYGTRIGKTPVYDLLKAEGQAHQPNFTFRVTVGDTSCTGQGPSKKAAKHKAAEVALKHLKGGSMLEPALEDSSSFSPLDSSLPEDIPVFTAAAAATPVPSVVLTRSPPMELQPPVSPQQSECNPVGALQELVVQKGWRLPEYTVTQESGPAHRKEFTMTCRVERFIEIGSGTSKKLAKRNAAAKMLLRVHTVPLDARDGNEVEPDDDHFSIGVGSRLDGLRNRGPGCTWDSLRNSVGEKILSLRSCSLGSLGALGPACCRVLSELSEEQAFHVSYLDIEELSLSGLCQCLVELSTQPATVCHGSATTREAARGEAARRALQYLKIMAGSK [TARBP2]	0.152	–	51.7	0.129
MSGFNFGGTGAPTGGFTFGTAKTATTTPATGFSFSTSGTGGFNFGAPFQPATSTPSTGLFSLATQTPATQTTGFTFGTATLASGGTGFSLGIGASKLNLSNTAATPAMANPSGFGLGSSNLTNAISSTVTSSQGTAPTGFVFGPSTTSVAPATTSGGFSFTGGSTAQPSGFNIGSAGNSAQPTAPATLPFTPATPAATTAGATQPAAPTPTATITSTGPSLFASIATAPTSSATTGLSLCTPVTTAGAPTAGTQGFSLKAPGAASGTSTTTSTAATATATTTSSSSTTGFALNLKPLAPAGIPSNTAAAVTAPPGPGAAAGAAASSAMTYAQLESLINKWSLELEDQERHFLQQATQVNAWDRTLIENGEKITSLHREVEKVKLDQKRLDQELDFILSQQKELEDLLSPLEELVKEQSGTIYLQHADEEREKTYKLAENIDAQLKRMAQDLKDIIEHLNTSGAPADTSDPLQQICKILNAHMDSLQWIDQNSALLQRKVEEVTKVCEGRRKEQERSFRITFD [NUP62]	0.32	51.8	51.7	0.107
MSQATKRKHVVKEVLGEHIVPSDQQQIVRVLRTPGNNLHEVETAQGQRFLVSMPSKYRKNIWIKRGDFLIVDPIEEGEKVKAEISFVLCKDHVRSLQKEGFWPEAFSEVAEKHNNRNRQTQPELPAEPQLSGEESSSEDDSDLFVNTNRRQYHESEEESEEEEAA [EIF1AD]	0.37	53.5	53.3	-0.0155
MSSRSTKDLIKSKWGSKPSNSKSETTLEKLKGEIAHLKTSVDEITSGKGKLTDKERHRLLEKIRVLEAEKEKNAYQLTEKDKEIQRLRDQLKARYSTTTLLEQLEETTREGERREQVLKALSEEKDVLKQQLSAATSRIAELESKTNTLRLSQTVAPNCFNSSINNIHEMEIQLKDALEKNQQWLVYDQQREVYVKGLLAKIFELEKKTETAAHSLPQQTKKPESEGYLQEEKQKCYNDLLASAKKDLEVERQTITQLSFELSEFRRKYEETQKEVHNLNQLLYSQRRADVQHLEDDRHKTEKIQKLREENDIARGKLEEEKKRSEELLSQVQFLYTSLLKQQEEQTRVALLEQQMQACTLDFENEKLDRQHVQHQLHVILKELRKARNQITQLESLKQLHEFAITEPLVTFQGETENREKVAASPKSPTAALNESLVECPKCNIQYPATEHRDLLVHVEYCSK [CEP55]	0.417	48.1	48.9	0.238
